Assay [1] concerns the target gp120 of CCR5-tropic HIV-1 BaL (on cell-free virus) (HIV-1 BaL). The experiment in a line: cell-based or functional assay.
Assay [2] concerns the target gp120 of CXCR4-tropic HIV-1 IIIB (on cell-free virus) (HIV-1 IIIB). Briefly: cell-based or functional assay.

B1: Lactobacillus-derived full-length APVT-CV-N (P51G) (other)
chain: APVTLGKFSQTCYNSAIQGSVLTSTCERTNGGYNTSSIDLNSVIENVDGSLKWQGSNFIETCRNTQLAGSSELAAECKTRAQQFVSTKINLDDHIANIDGTLKYE
In the case of B1, the “IC50, inhibition of CCR5-tropic HIVBaL infection (MAGI-R5-LTR-beta-gal attachment inhibition assay)” value in assay [1] stood at 0.3 nM. Further, in assay [2], the “IC50, inhibition of CXCR4-tropic HIVIIIB (HeLa-LTR-beta-gal X4-tropic attachment assay)” value is below 3 nM.

The values are drawn from patent US20090155304A1 (OSEL, published 2009).
